The target of assay [1] is purified truncated Gn protein of Rift Valley fever virus (Rift Valley fever virus). As to the kind of experiment: ELISA, truncated Gn coated at 2 ug/mL, 50 uL 293T expression supernatant. (In an ELISA, binding on a coated surface is turned into a signal by an enzyme label.)
For assay [2], the target named is Gn protein of Rift Valley fever virus (Rift Valley fever virus).
The target in assay [3] is purified truncated Gn protein of Rift Valley fever virus (Rift Valley fever virus).

B1: monoclonal antibody A38 (antibody, V domains shown)
VH: VQLVQELGPGLVKPSETLSLTCAVSGYSISSPYSWGWIRQPPGKGLEWIGGVYSSGEIRHLDPSLKSRVTLSLDTSKNQFSLKLNSVTAADTAVYFCASANGGVAQDAFDFWGQGLRVTVSS
VL: QPVLTQPPSLSAPPGASARLPCTLSSDLSVTSLNIYWYQQKSGSAPRLFLYYYSDSDKQLGPGVPSRVSGSKETSSNTALLFISGLQPEDEADYYCQVYDSSAYVLFGGGTRLTVLG
On to B1, for which the OD value (OD450 nm-OD630 nm) in assay [1] was 1.4 OD. For the same molecule, in assay [2], the Kd (as a rule, a measure of binding affinity in units of concentration) came to 0.972 nM; the koff (commonly the first-order rate constant of dissociation) was 0.00013 s⁻¹; the kon (as a rule, a measure of how fast the partners come together) was 133000 M⁻¹ s⁻¹. Further, the EC50 (commonly the concentration giving half of the maximal effect) in assay [3] turned out to be 4.51 ng/mL.
